This note sets out measurements from article PMC4983110, “Shared and distinct functions of the pseudokinase CORYNE (CRN) in shoot and root stem cell maintenance of Arabidopsis” (Journal of Experimental Botany, 2016).

Numbering of substitutions follows the chain as printed. Names and notes keep the numbering of the source.

What all share (assay): FRET or BRET; FRET-APB (acceptor photobleaching) in transiently transformed Nicotiana benthamiana cells; GFP donor, mCherry acceptor bleached in a region along the plasma membrane; apparent FRET efficiency as donor-dequenching in %
The target of experiment [1] is CLAVATA2 (CLV2), wild type, tagged with mCherry (Arabidopsis thaliana) (UniProt O80809).
Experiment [2] deals with T1, CLAVATA2 (CLV2), wild type, tagged with mCherry (Arabidopsis thaliana, UniProt O80809 26-720).
T1 construct: CLAVATA2 (CLV2), Arabidopsis thaliana, LRR receptor-like protein, wild type, from cDNA; also called CLV2-mCherry; source: N. benthamiana, transiently expressed from an inducible vector, in living cells
T1 sequence (looked up): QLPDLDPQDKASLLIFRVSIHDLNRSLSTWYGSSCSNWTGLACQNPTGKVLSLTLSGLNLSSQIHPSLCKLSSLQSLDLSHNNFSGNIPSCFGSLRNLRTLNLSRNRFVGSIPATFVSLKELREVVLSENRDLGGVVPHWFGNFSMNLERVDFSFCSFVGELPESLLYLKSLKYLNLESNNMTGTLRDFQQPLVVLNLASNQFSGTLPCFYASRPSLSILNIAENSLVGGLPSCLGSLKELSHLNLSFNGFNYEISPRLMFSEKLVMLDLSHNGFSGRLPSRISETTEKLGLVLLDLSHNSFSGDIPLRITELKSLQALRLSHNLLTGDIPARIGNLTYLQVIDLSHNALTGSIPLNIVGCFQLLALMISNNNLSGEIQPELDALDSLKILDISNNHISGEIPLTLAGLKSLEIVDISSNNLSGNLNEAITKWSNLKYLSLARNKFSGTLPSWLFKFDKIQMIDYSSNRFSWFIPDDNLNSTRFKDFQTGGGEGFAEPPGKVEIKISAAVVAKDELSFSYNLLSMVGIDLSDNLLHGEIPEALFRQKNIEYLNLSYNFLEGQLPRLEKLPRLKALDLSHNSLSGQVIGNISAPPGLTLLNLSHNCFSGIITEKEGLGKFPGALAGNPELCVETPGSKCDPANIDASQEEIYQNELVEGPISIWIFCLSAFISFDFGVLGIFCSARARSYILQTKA
Conditions: partners not purified.

Experiment [3] concerns the target T2, CLAVATA2 (CLV2), wild type, tagged with GFP (Arabidopsis thaliana, UniProt O80809 26-720).
T2 construct: CLAVATA2 (CLV2), Arabidopsis thaliana, LRR receptor-like protein, wild type, from cDNA; also called CLV2-GFP; source: N. benthamiana, transiently expressed from an inducible vector, in living cells
T2 sequence (looked up): T1 sequence (looked up)
The note with it: partners not purified.

For experiment [4], the target named is chimeric protein of the CLV2 LRR-receptor and its TMD fused to the CRN kinase domain, tagged with GFP (Arabidopsis thaliana) (UniProt Q9LYU7).
The target in experiment [5] is CLV2 with the entire RxR motif deleted, tagged with GFP (Arabidopsis thaliana) (UniProt O80809).
The target in experiment [6] is CLV2 with the first conserved arginine of the RxR motif replaced with an alanine, tagged with GFP (Arabidopsis thaliana) (UniProt O80809).

On to “CRN lacking the N-terminal, distal part of the extracellular domain, tagged with GFP (from UniProt Q9LYU7 34-62) (natural protein)”, for which the D-d (%) (donor-dequenching, apparent FRET efficiency) in experiment [1] was found to be 11.2%. Same read-out and setting: next, “chimera of CRN in which the kinase is replaced with the kinase domain of CLV1, tagged with GFP (from UniProt Q9SYQ8 692-968)”: 10.3%; “CRN lacking the proximal part of the extracellular domain adjacent to the TMD, tagged with GFP (from UniProt Q9LYU7 34-62) (natural protein)”: 10.5%; “CRN lacking the entire extracellular domain, tagged with GFP (from UniProt Q9LYU7 34-62) (natural protein)”: 7.2%. In the case of “shortened CRN protein lacking the kinase, tagged with GFP (domain or fragment)”, the D-d (%) (donor-dequenching, apparent FRET efficiency) in experiment [1] came to 24.5%.

B1: crn-3 variant of CRN (translational stop at Q296, kinase domain shortened by one third), tagged with GFP (domain or fragment, Arabidopsis thaliana, UniProt Q9LYU7 34-295, looked up)
chain: TSCRRRTVKHLSTTSTSSTPLESRITSKVIVISIVSGILTGLVSALVLAFLVRSIVKFMKQTPILKGPVVFSPKITPKSLHAALSNGIQLLGSDLNGKYYKMVLDNGLVVAVKRLGSLEGVGSPESSSSKSVKRRLQKELELLAGLRHRNLMSLRAYVRESDEFSLVYDYMPNGSLEDVMNKVRTKEVELGWEIRLRVAVGIVKGLQYLHFSCETQILHYNLKPTNVMLDSEFEPRLADCGLAKIMPSSHTAVSCYSAPESS
notes: signal peptide in the construct; CRN, Arabidopsis thaliana, truncated by the point mutation at Q296 of the EMS-induced crn-3 allele, which causes a translational stop; also called crn-3-GFP; source: N. benthamiana, transiently expressed, in living cells
With B1, in experiment [2], the “D-d (%) (donor-dequenching, apparent FRET efficiency)” value stood at 18.3%.

B2: CORYNE (CRN), wild type, tagged with mCherry (natural protein, Arabidopsis thaliana, UniProt Q9LYU7 34-401, looked up)
chain: TSCRRRTVKHLSTTSTSSTPLESRITSKVIVISIVSGILTGLVSALVLAFLVRSIVKFMKQTPILKGPVVFSPKITPKSLHAALSNGIQLLGSDLNGKYYKMVLDNGLVVAVKRLGSLEGVGSPESSSSKSVKRRLQKELELLAGLRHRNLMSLRAYVRESDEFSLVYDYMPNGSLEDVMNKVRTKEVELGWEIRLRVAVGIVKGLQYLHFSCETQILHYNLKPTNVMLDSEFEPRLADCGLAKIMPSSHTAVSCYSAPESSQSNRYTDKSDIFSFGMILGVLLTGRDPTHPFCEESASGGSLGQWLKHLQQSGEAREALDKTILGEEVEEDEMLMALRITIICLSDFPADRPSSDELVHMLTQLHSF
notes: CORYNE (CRN), Arabidopsis thaliana, wild type, from cDNA; the longer splice variant, not gene model AT5G13290.1; also called CRN-mCherry; source: N. benthamiana, transiently expressed from an inducible vector, in living cells
Take B2: the “D-d (%) (donor-dequenching, apparent FRET efficiency)” value stood at 11.7% in experiment [3], 5.7% in experiment [4], 11.4% in experiment [5] and 14.2% in experiment [6].

B3: CORYNE (CRN), wild type, tagged with GFP (natural protein, Arabidopsis thaliana, UniProt Q9LYU7 34-401, looked up)
chain: B2 chain
notes: CORYNE (CRN), Arabidopsis thaliana, wild type, from cDNA; Residue numbers (G70, S156, Q296) count on the longer splice variant, not on gene model AT5G13290.1, on which S156 is S131; also called CRN-GFP; source: N. benthamiana, transiently expressed from an inducible vector, in living cells
Consider B3, for which, in experiment [2], the “D-d (%) (donor-dequenching, apparent FRET efficiency)” value stood at 10.5%.

B4: CRN with S156D (putative phosphomimetic variant), tagged with GFP (natural protein, Arabidopsis thaliana, UniProt Q9LYU7 34-401, looked up)
chain: B2 chain with S123D
notes: CRN, Arabidopsis thaliana, serine 156 replaced with aspartic acid; S156 is S131 on gene model AT5G13290.1 (the shorter splice variant); also called CR(SD)-GFP; CR(SD); source: N. benthamiana, transiently expressed, in living cells
As to B4, the “D-d (%) (donor-dequenching, apparent FRET efficiency)” value in experiment [2] was 12.2%.

B5: crn-1 variant of CRN (G70E in the predicted TMD), tagged with GFP (natural protein, Arabidopsis thaliana, UniProt Q9LYU7 34-401, looked up)
chain: B2 chain with G37E
notes: CRN, Arabidopsis thaliana, with the amino acid exchange G70E of the EMS-induced crn-1 allele in the predicted TMD; also called crn-1-GFP; source: N. benthamiana, transiently expressed, in living cells
Consider B5, for which the “D-d (%) (donor-dequenching, apparent FRET efficiency)” value in experiment [2] stood at 5.2%.

B6: CRN with S156A (phosphomute variant), tagged with GFP (natural protein, Arabidopsis thaliana, UniProt Q9LYU7 34-401, looked up)
chain: B2 chain with S123A
notes: CRN, Arabidopsis thaliana, serine 156 replaced with alanine; S156 is S131 on gene model AT5G13290.1 (the shorter splice variant); also called CR(SA)-GFP; CR(SA); source: N. benthamiana, transiently expressed, in living cells
As to B6, the “D-d (%) (donor-dequenching, apparent FRET efficiency)” value in experiment [2] is 13.5%.
